Laboratory results as given in the supplement of paper PMC9112550, “Optimization of the antimicrobial peptide Bac7 by deep mutational scanning” (BMC Biology, 2022).

Test system: Escherichia coli TOP10
Experiment: shrunken log2 fold change of peptide-encoding DNA abundance (4.5 h post-induction vs induction); higher = less antimicrobial activity (less host growth inhibition)
Conditions: time post-induction: 4.5 h; library: site-saturation at positions 5, 18, 19, 20
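Also: peptides expressed intracellularly from a pBAD plasmid library in pooled LB shake-flask culture, induced with 0.3% L-arabinose, DNA abundance read by NGS, three biological replicates, DESeq2 with apeglm shrinkage.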

| Sequence | shrunken log2 fold change |
| --- | --- |
| RRIRQRPPRLPRPRPRPEMHPRP | 0.393 |
| RRIRWRPPRLPRPRPRPLHWPRP | 0.296 |
| RRIRKRPPRLPRPRPRPKHDPRP | 0.133 |
| RRIRHRPPRLPRPRPRPVPGPRP | -0.163 |
| RRIRARPPRLPRPRPRPWEVPRP | 0.205 |
| RRIRVRPPRLPRPRPRPKSRPRP | 0.0366 |
| RRIRFRPPRLPRPRPRPMNTPRP | 0.0693 |
| RRIRSRPPRLPRPRPRPDCTPRP | 0.038 |
| RRIRHRPPRLPRPRPRPEPMPRP | 0.134 |
| RRIRYRPPRLPRPRPRPVKVPRP | 0.0182 |
| RRIRCRPPRLPRPRPRPEDVPRP | -0.0129 |
| RRIRNRPPRLPRPRPRPDMDPRP | -0.0127 |
| RRIRHRPPRLPRPRPRPTQNPRP | 0.666 |
| RRIRSRPPRLPRPRPRPSMQPRP | -0.242 |
| RRIRTRPPRLPRPRPRPDFHPRP | -0.336 |
| RRIRERPPRLPRPRPRPFSSPRP | -0.0152 |
| RRIRDRPPRLPRPRPRPNFNPRP | -0.307 |
| RRIRRRPPRLPRPRPRPQHQPRP | 0.246 |
| RRIRMRPPRLPRPRPRPIVCPRP | -0.0438 |
| RRIRNRPPRLPRPRPRPSPRPRP | 0.0772 |
| RRIRNRPPRLPRPRPRPRQIPRP | 0.151 |
| RRIRLRPPRLPRPRPRPKVWPRP | 0.0698 |
| RRIRHRPPRLPRPRPRPIGIPRP | 0.0295 |
| RRIRQRPPRLPRPRPRPMGLPRP | -0.0103 |
| RRIRVRPPRLPRPRPRPMPTPRP | 0.282 |

| Sequence | shrunken log2 fold change |
| --- | --- |
| RRIRDRPPRLPRPRPRPLPFPRP | -0.398 |
| RRIRCRPPRLPRPRPRPHAVPRP | -0.559 |
| RRIRVRPPRLPRPRPRPWMTPRP | -0.0714 |
| RRIRSRPPRLPRPRPRPFPNPRP | -0.133 |
| RRIRPRPPRLPRPRPRPVDYPRP | 0.0307 |
| RRIRNRPPRLPRPRPRPKKRPRP | 0.201 |
| RRIRDRPPRLPRPRPRPVSAPRP | 0.666 |
| RRIRNRPPRLPRPRPRPVGNPRP | -0.00879 |
| RRIRIRPPRLPRPRPRPFFMPRP | -0.538 |
| RRIRNRPPRLPRPRPRPMIDPRP | -0.0621 |
| RRIRVRPPRLPRPRPRPEWLPRP | 0.0685 |
| RRIRDRPPRLPRPRPRPEWYPRP | 0.0233 |
| RRIRCRPPRLPRPRPRPDPLPRP | 0.00869 |
| RRIRFRPPRLPRPRPRPWWLPRP | -0.0533 |
| RRIRYRPPRLPRPRPRPMMMPRP | -0.497 |
| RRIRLRPPRLPRPRPRPTWWPRP | 0.454 |
| RRIRCRPPRLPRPRPRPWQNPRP | -0.124 |
| RRIRQRPPRLPRPRPRPLAQPRP | 0.233 |
| RRIRERPPRLPRPRPRPKKYPRP | -0.518 |
| RRIRNRPPRLPRPRPRPYYTPRP | -1.27 |
| RRIRGRPPRLPRPRPRPKVHPRP | 0.598 |
| RRIRPRPPRLPRPRPRPGTLPRP | 0.0426 |
| RRIRHRPPRLPRPRPRPFGYPRP | -0.133 |
| RRIRWRPPRLPRPRPRPLTQPRP | 0.307 |
| RRIRPRPPRLPRPRPRPSDSPRP | -0.361 |

| Sequence | shrunken log2 fold change |
| --- | --- |
| RRIRDRPPRLPRPRPRPIHAPRP | 0.125 |
| RRIRFRPPRLPRPRPRPRAGPRP | 0.614 |
| RRIRIRPPRLPRPRPRPVRYPRP | 0.326 |
| RRIRERPPRLPRPRPRPVRNPRP | -0.41 |
| RRIRGRPPRLPRPRPRPENCPRP | 0.111 |
| RRIRIRPPRLPRPRPRPQAEPRP | 0.172 |
| RRIRGRPPRLPRPRPRPRFAPRP | 0.99 |
| RRIRCRPPRLPRPRPRPEFEPRP | 0.0293 |
| RRIRNRPPRLPRPRPRPHEQPRP | -0.066 |
| RRIRHRPPRLPRPRPRPALFPRP | -0.0554 |
| RRIRIRPPRLPRPRPRPEYNPRP | 0.0781 |
| RRIRMRPPRLPRPRPRPTHPPRP | 0.564 |
| RRIRCRPPRLPRPRPRPKKQPRP | 0.155 |
| RRIRARPPRLPRPRPRPCEGPRP | 0.0679 |
| RRIRMRPPRLPRPRPRPACWPRP | 1.06 |
| RRIRHRPPRLPRPRPRPNTNPRP | -0.74 |
| RRIRNRPPRLPRPRPRPYYDPRP | -0.0248 |
| RRIRGRPPRLPRPRPRPSNTPRP | -0.023 |
| RRIRGRPPRLPRPRPRPKSRPRP | 0.0451 |
| RRIRPRPPRLPRPRPRPIEHPRP | -0.186 |
| RRIRRRPPRLPRPRPRPKRQPRP | 0.584 |
| RRIRLRPPRLPRPRPRPEYHPRP | 0.0779 |
| RRIRWRPPRLPRPRPRPAKWPRP | 0.386 |
| RRIRMRPPRLPRPRPRPGEEPRP | 3.02 |
| RRIRVRPPRLPRPRPRPNFLPRP | -0.0134 |

| Sequence | shrunken log2 fold change |
| --- | --- |
| RRIRARPPRLPRPRPRPHLCPRP | 0.202 |
| RRIRLRPPRLPRPRPRPQDAPRP | 0.0335 |
| RRIRTRPPRLPRPRPRPMWRPRP | -0.0938 |
| RRIRNRPPRLPRPRPRPANWPRP | 0.182 |
| RRIRHRPPRLPRPRPRPMGEPRP | -0.0135 |
| RRIRKRPPRLPRPRPRPAIAPRP | 0.802 |
| RRIRWRPPRLPRPRPRPFHMPRP | -0.138 |
| RRIRDRPPRLPRPRPRPVWQPRP | 0.63 |
| RRIRWRPPRLPRPRPRPKRIPRP | 0.364 |
| RRIRMRPPRLPRPRPRPAEIPRP | 0.11 |
| RRIRDRPPRLPRPRPRPLRQPRP | 0.565 |
| RRIRQRPPRLPRPRPRPMHAPRP | 0.254 |
| RRIRFRPPRLPRPRPRPEHKPRP | -0.0193 |
| RRIRMRPPRLPRPRPRPCFYPRP | -0.16 |
| RRIRRRPPRLPRPRPRPGSCPRP | 0.152 |
| RRIRGRPPRLPRPRPRPPFAPRP | 1.91 |
| RRIRWRPPRLPRPRPRPLMDPRP | 0.185 |
| RRIRCRPPRLPRPRPRPIYCPRP | -0.14 |
| RRIRPRPPRLPRPRPRPITMPRP | -0.238 |
| RRIRWRPPRLPRPRPRPPQCPRP | 0.292 |
| RRIRYRPPRLPRPRPRPRMNPRP | 0.0193 |
| RRIRFRPPRLPRPRPRPIHEPRP | -0.169 |
| RRIRFRPPRLPRPRPRPRLVPRP | 0.207 |
| RRIRHRPPRLPRPRPRPMRNPRP | 0.435 |
| RRIRDRPPRLPRPRPRPDMHPRP | 0.633 |

| Sequence | shrunken log2 fold change |
| --- | --- |
| RRIRHRPPRLPRPRPRPRKEPRP | -0.0122 |
| RRIRHRPPRLPRPRPRPFDTPRP | -0.178 |
| RRIRCRPPRLPRPRPRPISQPRP | -0.544 |
| RRIRGRPPRLPRPRPRPYKDPRP | -0.322 |
| RRIRVRPPRLPRPRPRPDVWPRP | -0.0858 |
| RRIRQRPPRLPRPRPRPRFVPRP | 0.165 |
| RRIRTRPPRLPRPRPRPTHLPRP | -0.0332 |
| RRIRQRPPRLPRPRPRPLDTPRP | -0.144 |
| RRIRTRPPRLPRPRPRPMCVPRP | 0.103 |
| RRIRWRPPRLPRPRPRPSDRPRP | -0.0684 |
| RRIRRRPPRLPRPRPRPIGIPRP | -0.088 |
| RRIRFRPPRLPRPRPRPGMEPRP | 0.0216 |
| RRIRERPPRLPRPRPRPGQGPRP | -0.132 |
| RRIRTRPPRLPRPRPRPFLFPRP | -0.303 |
| RRIRARPPRLPRPRPRPLTFPRP | -0.203 |
| RRIRGRPPRLPRPRPRPKESPRP | 0.981 |
| RRIRARPPRLPRPRPRPWNKPRP | -0.0945 |
| RRIRYRPPRLPRPRPRPKRIPRP | -0.0123 |
| RRIRFRPPRLPRPRPRPTLCPRP | 0.107 |
| RRIRCRPPRLPRPRPRPWGTPRP | -0.0869 |
| RRIRHRPPRLPRPRPRPGMNPRP | 0.00489 |
| RRIRNRPPRLPRPRPRPRKVPRP | 0.445 |
| RRIRIRPPRLPRPRPRPPCAPRP | 0.201 |
| RRIRFRPPRLPRPRPRPGQDPRP | -0.0452 |
| RRIRNRPPRLPRPRPRPTKMPRP | 0.00053 |

| Sequence | shrunken log2 fold change |
| --- | --- |
| RRIRARPPRLPRPRPRPCNCPRP | 0.00702 |
| RRIRARPPRLPRPRPRPPMGPRP | 0.358 |
| RRIRDRPPRLPRPRPRPDVRPRP | 0.0212 |
| RRIRMRPPRLPRPRPRPEIDPRP | 3.19 |
| RRIRQRPPRLPRPRPRPVDSPRP | 0.0997 |
| RRIRKRPPRLPRPRPRPLYYPRP | -0.458 |
| RRIRHRPPRLPRPRPRPNTSPRP | -0.534 |
| RRIRMRPPRLPRPRPRPQQDPRP | 0.741 |
| RRIRMRPPRLPRPRPRPPCQPRP | 0.505 |
| RRIRYRPPRLPRPRPRPRSTPRP | -0.156 |
| RRIRFRPPRLPRPRPRPIDIPRP | 0.0578 |
| RRIRIRPPRLPRPRPRPVPWPRP | 2.5 |
| RRIRDRPPRLPRPRPRPDCIPRP | 0.438 |
| RRIRVRPPRLPRPRPRPMYTPRP | -0.23 |
| RRIRGRPPRLPRPRPRPLALPRP | 0.665 |
| RRIRTRPPRLPRPRPRPPCMPRP | 0.0978 |
| RRIRARPPRLPRPRPRPCWAPRP | 0.119 |
| RRIRHRPPRLPRPRPRPALLPRP | 0.284 |
| RRIRWRPPRLPRPRPRPHGNPRP | 0.132 |
| RRIRLRPPRLPRPRPRPKQAPRP | 0.152 |
| RRIRWRPPRLPRPRPRPNMRPRP | 0.0208 |
| RRIRMRPPRLPRPRPRPDNFPRP | -0.184 |
| RRIRRRPPRLPRPRPRPHYPPRP | 0.158 |
| RRIRNRPPRLPRPRPRPAFGPRP | -0.189 |
| RRIRGRPPRLPRPRPRPHIYPRP | 0.0231 |
